Measured values taken from paper PMC7532188.

Biological target: His-tagged TASOR(354–633), tandem SPOC-DomI construct (human) (UniProt Q9UK61)
Assay: SEC-MALS; complex co-expressed in E. coli and purified by Ni-affinity; Superdex 200 (10/300), 293 K, 20 mM HEPES pH 7.5, 0.5 M NaCl, 0.5 mM TCEP

UniProt Q9UK61, sequence (Q9UK61 354-633): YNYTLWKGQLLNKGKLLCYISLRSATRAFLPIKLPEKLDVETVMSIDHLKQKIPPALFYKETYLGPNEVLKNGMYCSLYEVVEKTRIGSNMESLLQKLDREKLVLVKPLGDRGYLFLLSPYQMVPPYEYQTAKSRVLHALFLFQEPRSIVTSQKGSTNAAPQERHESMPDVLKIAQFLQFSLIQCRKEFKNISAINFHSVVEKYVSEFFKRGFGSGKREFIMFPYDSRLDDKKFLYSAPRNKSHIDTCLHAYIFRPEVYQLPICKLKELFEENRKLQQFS

“MPP8 C-terminus (residues 528–860) (from UniProt Q99549-1 528-860) (domain or fragment)” was tested, and the stoichiometry N was 1.
